# Data: patent US5677146A, “Human amyloid protein precursor homolog and kunitz-type inhibitor” (Zymogenetics, Inc., priority 1995, dated 1997)
# T1: human Factor XIIa (Homo sapiens, UniProt P00748)
# T1 construct: human Factor XIIa (30 nM); purchased Dr. Walt Kisiel, University of New Mexico, Albuquerque, NM
# T1 sequence (P00748 20-372 limits assumed): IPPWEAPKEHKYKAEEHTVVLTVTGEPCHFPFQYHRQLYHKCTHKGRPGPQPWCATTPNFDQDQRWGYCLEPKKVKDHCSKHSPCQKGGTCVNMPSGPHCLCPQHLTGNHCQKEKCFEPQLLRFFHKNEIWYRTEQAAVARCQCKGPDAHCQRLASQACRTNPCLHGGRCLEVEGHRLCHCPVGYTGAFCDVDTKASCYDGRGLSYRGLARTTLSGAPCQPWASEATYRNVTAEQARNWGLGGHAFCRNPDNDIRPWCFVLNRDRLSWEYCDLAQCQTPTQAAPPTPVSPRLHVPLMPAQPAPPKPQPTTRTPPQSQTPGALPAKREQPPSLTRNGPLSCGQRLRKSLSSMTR
# T1 sequence (P00748 373-615 limits assumed): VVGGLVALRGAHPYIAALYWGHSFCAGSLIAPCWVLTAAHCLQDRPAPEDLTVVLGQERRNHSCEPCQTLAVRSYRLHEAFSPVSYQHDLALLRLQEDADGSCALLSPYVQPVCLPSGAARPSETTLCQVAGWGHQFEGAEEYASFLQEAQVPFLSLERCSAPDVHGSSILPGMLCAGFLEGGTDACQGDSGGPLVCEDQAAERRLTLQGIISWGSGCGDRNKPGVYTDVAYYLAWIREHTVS
# T2: rec. human Factor VIIa (Homo sapiens, UniProt P08709)
# T2 construct: rec. human Factor VIIa; purchased Novo Nordisk A/S
# T2 sequence (P08709 61-212 limits assumed): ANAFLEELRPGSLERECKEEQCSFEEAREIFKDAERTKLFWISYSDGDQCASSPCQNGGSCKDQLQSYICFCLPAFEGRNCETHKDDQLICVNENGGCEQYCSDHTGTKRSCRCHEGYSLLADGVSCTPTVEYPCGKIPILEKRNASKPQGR
# T2 sequence (P08709 213-466 limits assumed): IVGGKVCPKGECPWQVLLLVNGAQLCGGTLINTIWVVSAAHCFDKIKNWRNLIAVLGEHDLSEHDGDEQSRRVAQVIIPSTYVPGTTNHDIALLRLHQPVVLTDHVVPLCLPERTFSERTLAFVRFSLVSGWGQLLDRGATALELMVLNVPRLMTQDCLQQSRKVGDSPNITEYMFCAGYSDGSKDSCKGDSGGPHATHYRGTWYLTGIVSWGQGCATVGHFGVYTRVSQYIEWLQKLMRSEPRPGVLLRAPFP
# T3: Leukocyte Elastase (Homo sapiens, UniProt P08246)
# T3 construct: purified at Novo Nordisk A/S; tissue Novo Nordisk A/S (purified there); host or cells: leukocytes
# T3 sequence (P08246 30-267): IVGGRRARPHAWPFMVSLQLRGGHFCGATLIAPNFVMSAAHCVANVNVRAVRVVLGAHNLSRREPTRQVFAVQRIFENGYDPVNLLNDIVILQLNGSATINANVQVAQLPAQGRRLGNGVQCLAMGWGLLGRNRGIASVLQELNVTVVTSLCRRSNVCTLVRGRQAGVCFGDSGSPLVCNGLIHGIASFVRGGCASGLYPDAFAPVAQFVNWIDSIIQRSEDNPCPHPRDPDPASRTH
# T4: Cathepsin G (Homo sapiens, UniProt P08311)
# T4 construct: purified at Novo Nordisk A/S; tissue Novo Nordisk A/S (purified there); host or cells: leukocytes (by the cited method)
# T4 sequence (P08311 21-255): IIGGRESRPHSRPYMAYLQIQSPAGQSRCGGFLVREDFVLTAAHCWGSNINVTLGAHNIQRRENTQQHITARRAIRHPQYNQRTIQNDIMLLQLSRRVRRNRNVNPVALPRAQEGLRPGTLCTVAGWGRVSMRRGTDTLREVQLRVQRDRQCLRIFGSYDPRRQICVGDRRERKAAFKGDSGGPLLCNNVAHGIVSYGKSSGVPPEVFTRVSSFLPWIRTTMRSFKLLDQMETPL
# Tests used:
# Type in all cases: biochemical
# [1] = tested on: Trypsin; test: Protease inhibitory activity assay, trypsin; settings: 1 μM inhibitor; trypsin 8 nM; H-D-Val-Leu-Lys-pNA 0.6 mM; 25° C.
# Experimental: Trypsin (8 nM) H--D--Val--Leu--Lys--pNA
# (§1) Inhibition assays were performed in microtiter wells in a total volume of 300 μl in 10 mM NaCl, 50 mM Tris-HCl (pH 7.4), 0.01% TWEEN80 (Polyoxyethylenesorbitan monoleate). The reactions were incubated at 25° C. for ten minutes after which the appropriate chromogenic substrate was added to the final concentration listed in Table 2 and the final reaction was incubated for thirty minutes at 25° C. Amidolytic activity was measured at 405 nm or by fluorescence Em at 460 nm.
# [2] = tested on: Chymotrypsin; test: Protease inhibitory activity assay, chymotrypsin; settings: 1 μM inhibitor; chymotrypsin 2.5 nM; MeO-Suc-Arg-Pro-Tyr-pNA 0.6 mM; 25° C.
# Experimental: MeO--Suc--Arg--Pro--Tyr--pNA
# as §1
# [3] = tested on: GL Kallikrein (glandular kallikrein); test: Protease inhibitory activity assay, glandular kallikrein; settings: 1 μM inhibitor; GL kallikrein 1 U/ml; H-D-Val-Leu-Arg-pNA 0.6 mM; 25° C.
# Experimental: H--D--Val--Leu--Arg--pNA
# (§2) Abbreviations in Table 2: rec. refers to recombinant, GL kallikrein refer
# (§3) to glandular kallikrein, and PL kallikrein refers to plasma kallikrein.
# as §1
# [4] = target: T5, Plasmin (Homo sapiens, UniProt P00747); test: Protease inhibitory activity assay, plasmin; settings: 1 μM inhibitor; plasmin 10 nM; H-D-Val-Leu-Lys-pNA 0.6 mM; 25° C.
# T5 construct: Plasmin (10 nM); purchased Kabi
# T5 sequence (P00747 97-580 limits assumed): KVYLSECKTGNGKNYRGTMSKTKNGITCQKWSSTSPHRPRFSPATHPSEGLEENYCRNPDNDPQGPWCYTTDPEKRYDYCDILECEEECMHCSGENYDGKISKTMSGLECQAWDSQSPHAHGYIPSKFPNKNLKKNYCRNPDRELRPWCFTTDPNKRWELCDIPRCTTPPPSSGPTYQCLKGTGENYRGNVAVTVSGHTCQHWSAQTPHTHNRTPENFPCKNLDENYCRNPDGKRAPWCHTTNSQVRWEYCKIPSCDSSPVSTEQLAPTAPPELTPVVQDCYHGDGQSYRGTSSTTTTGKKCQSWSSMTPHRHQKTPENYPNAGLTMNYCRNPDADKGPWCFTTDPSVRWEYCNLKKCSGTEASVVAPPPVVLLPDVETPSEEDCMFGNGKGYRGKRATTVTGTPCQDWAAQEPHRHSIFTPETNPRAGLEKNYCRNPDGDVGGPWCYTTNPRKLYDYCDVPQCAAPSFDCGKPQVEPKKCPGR
# T5 sequence (P00747 581-810 limits assumed): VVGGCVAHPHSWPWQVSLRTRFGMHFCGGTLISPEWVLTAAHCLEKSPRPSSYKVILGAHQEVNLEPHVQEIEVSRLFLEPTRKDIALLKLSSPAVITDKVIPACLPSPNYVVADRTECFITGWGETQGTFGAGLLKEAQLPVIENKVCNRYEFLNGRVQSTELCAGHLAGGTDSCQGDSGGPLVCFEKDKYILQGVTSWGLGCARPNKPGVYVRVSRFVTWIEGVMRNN
# Experimental: H--D--Val--Leu--Lys--pNA
# as §1
# [5] = target: T6, Urokinase (Homo sapiens, UniProt P00749); test: Protease inhibitory activity assay, urokinase; settings: 1 μM inhibitor; urokinase 5 nM; <Glu-Gly-Arg-pNA 0.6 mM; 25° C.
# T6 construct: purchased Serono, Freigung, Germany
# Experimental: as §1
# [6] = target: T7, rec. Protein Ca (activated protein C) (Homo sapiens, UniProt P04070); test: Protease inhibitory activity assay, activated protein C; settings: 1 μM inhibitor; rec. Protein Ca 5 nM; <Glu-Pro-Arg-pNA 0.6 mM; 25° C.
# T7 construct: purchased Novo Nordisk A/S
# T7 sequence (P04070 43-197 limits assumed): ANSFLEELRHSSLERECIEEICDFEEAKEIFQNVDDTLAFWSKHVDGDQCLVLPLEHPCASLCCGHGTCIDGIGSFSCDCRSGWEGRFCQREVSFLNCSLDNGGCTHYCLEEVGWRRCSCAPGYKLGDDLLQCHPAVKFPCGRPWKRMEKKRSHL
# T7 sequence (P04070 212-461 limits assumed): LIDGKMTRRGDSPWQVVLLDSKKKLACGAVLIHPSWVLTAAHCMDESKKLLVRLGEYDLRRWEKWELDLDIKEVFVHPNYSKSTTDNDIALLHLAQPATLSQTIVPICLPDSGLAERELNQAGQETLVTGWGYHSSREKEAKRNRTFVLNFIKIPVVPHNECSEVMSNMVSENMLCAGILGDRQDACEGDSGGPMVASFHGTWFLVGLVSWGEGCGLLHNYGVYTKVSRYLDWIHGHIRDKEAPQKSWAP
# Experimental: as §1
# r.h. refers to recombinant human, h. refers to human, protein Ca refers t
# activated protein C; APPH refers to the KunitzType inhibitor domain of […]
# [7] = target: T8, PL Kallikrein (plasma kallikrein) (Homo sapiens, UniProt P03952); test: Protease inhibitory activity assay, plasma kallikrein; settings: 1 μM inhibitor; PL kallikrein 3 nM; H-D-Pro-Phe-Arg-pNA 0.6 mM; 25° C.
# T8 construct: purchased Kabi
# T8 sequence (P03952 20-390 limits assumed): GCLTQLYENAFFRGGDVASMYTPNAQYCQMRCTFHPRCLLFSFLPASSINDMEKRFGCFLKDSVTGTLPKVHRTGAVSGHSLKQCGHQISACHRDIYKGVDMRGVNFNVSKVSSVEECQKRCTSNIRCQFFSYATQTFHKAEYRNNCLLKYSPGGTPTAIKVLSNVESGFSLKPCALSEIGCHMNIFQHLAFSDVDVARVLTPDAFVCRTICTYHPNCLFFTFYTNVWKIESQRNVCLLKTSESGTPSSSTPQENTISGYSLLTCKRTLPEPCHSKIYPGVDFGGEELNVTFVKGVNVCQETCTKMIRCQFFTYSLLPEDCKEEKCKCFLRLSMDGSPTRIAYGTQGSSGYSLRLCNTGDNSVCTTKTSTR
# T8 sequence (P03952 391-638 limits assumed): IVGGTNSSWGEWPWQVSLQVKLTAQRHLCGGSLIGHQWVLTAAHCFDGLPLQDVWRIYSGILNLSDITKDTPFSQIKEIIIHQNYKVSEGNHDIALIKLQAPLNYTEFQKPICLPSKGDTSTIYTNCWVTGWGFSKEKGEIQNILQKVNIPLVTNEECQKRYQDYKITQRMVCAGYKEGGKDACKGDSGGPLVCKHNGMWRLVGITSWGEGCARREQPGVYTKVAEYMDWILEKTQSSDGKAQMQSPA
# Experimental: (§4) H--D--Pro--Phe--Arg--pNA
# as §2, §3, §1
# [8] = target: T1, human Factor XIIa; test: Protease inhibitory activity assay, Factor XIIa; settings: 1 μM inhibitor; Factor XIIa 30 nM; H-D-Pro-Phe-Arg-pNA 0.6 mM; 25° C.
# Experimental: human Factor XIIa (30 nM)
# as §4, §1
# [9] = target: T9, human Factor XIa (Homo sapiens, UniProt P03951); test: Protease inhibitory activity assay, Factor XIa; settings: 1 μM inhibitor; Factor XIa 1 nM; Boc-Glu(OBzl)-Ala-Arg-MCA 0.12 mM; 25° C.
# T9 construct: human Factor XIa (1 nM); purchased Dr. Kazuo Fujikawa, University of Washington, Seattle, WA
# T9 sequence (P03951 19-387 limits assumed): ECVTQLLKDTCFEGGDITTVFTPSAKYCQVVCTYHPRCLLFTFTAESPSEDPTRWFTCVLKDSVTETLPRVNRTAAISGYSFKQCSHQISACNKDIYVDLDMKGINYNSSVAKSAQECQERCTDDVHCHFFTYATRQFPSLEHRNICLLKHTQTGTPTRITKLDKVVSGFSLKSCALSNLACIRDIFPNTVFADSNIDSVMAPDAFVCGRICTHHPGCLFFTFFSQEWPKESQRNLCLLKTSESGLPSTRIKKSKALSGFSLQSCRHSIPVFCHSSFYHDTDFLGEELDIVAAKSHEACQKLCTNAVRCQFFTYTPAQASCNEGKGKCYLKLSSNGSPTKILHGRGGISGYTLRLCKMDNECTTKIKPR
# T9 sequence (P03951 388-625 limits assumed): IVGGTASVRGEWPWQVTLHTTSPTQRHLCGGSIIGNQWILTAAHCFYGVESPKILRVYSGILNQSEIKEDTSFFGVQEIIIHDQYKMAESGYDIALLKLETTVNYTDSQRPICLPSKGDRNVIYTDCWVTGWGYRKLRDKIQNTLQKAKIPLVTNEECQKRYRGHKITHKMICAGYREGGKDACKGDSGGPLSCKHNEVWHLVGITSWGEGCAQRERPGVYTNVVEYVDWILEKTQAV
# Experimental: Boc--Glu(OBzl)--Ala--Arg--MCA
# as §1
# [10] = target: T10, human Factor Xa (Homo sapiens, UniProt P00742); test: Protease inhibitory activity assay, Factor Xa; settings: 1 μM inhibitor; Factor Xa 3 nM; MeO-CO-CHA-Gly-Arg-pNA 0.3 mM; 25° C.
# T10 construct: human Factor Xa (3 nM); purchased Dr. I. Schousboe, Copenhagen, Denmark
# T10 sequence (P00742 41-179 limits assumed): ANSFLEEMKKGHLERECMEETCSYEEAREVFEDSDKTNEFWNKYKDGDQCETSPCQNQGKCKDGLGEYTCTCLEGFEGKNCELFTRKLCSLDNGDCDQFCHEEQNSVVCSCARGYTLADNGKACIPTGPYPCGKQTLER
# T10 sequence (P00742 235-488 limits assumed): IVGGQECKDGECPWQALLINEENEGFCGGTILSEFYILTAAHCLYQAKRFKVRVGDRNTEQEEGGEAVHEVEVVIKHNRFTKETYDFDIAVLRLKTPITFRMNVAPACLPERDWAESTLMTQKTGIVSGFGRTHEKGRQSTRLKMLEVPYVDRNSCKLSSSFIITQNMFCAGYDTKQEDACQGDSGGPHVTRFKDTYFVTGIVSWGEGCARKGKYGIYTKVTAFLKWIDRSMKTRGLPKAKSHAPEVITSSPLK
# Experimental: The reactions were incubated at 25° C. for ten minutes after which the appropriate chromogenic substrate was added to the final concentration listed in Table 2 and the final reaction was incubated for thirty minutes at 25° C. Amidolytic activity was measured at 405 nm or by fluorescence Em at 460 nm.
# [11] = target: T2, rec. human Factor VIIa; test: Protease inhibitory activity assay, Factor VIIa; settings: 1 μM inhibitor; Factor VIIa 300 nM; H-D-Ile-Pro-Arg-pNA 0.6 mM; 25° C.
# Experimental: H--D--Ile--Pro--Arg--pNA
# as §1
# [12] = target: T3, Leukocyte Elastase; test: Protease inhibitory activity assay, leukocyte elastase; settings: 1 μM inhibitor; MeO-Suc-Ala-Ala-Pro-Val-pNA 0.6 mM; 25° C.
# Experimental: MeO--Suc--Ala--Ala--Pro--Val--pNA
# (§5) purified at Novo Nordisk A/S
# as §1
# [13] = target: T4, Cathepsin G; test: Protease inhibitory activity assay, cathepsin G; settings: 1 μM inhibitor; Suc-Ala-Ala-Pro-Phe-pNA 0.6 mM; 25° C.
# Experimental: Cathepsin G Suc--Ala--Ala--Pro--Phe--pNA
# as §5
# (0.6 mM) (SEQ ID NO: 19)
# as §1
molecule,measurement,setting,value
"APPH: Kunitz-type inhibitor domain of the human amyloid protein precursor homologue (SEQ ID NO:2 region 53/56/57-110), expressed in yeast (protein) GYIEALAANAGTGFAVAEPQIAMFCGKLNMHVNIQTGKWEPDPTGTKSCFETKEEVLQYCQEMYPELQITNVMEANQRVSIDNWCRRDKKQCKSRFVTPFKCLVGEFVSDVLLVPEKCQFFHKERMEVCENHQHWHTVVKEACLTQGMTLYSYGMLLPCGVDQFHGTEYVCCPQTKIIGSVSKEEEEEDEEEEEEEDEEEDYDVYKSEFPTEADLEDFTEAAVDEDDEDEEEGEEVVEDRDYYYDTFKGDDYNEENPTEPGSDGTMSDKEITHDVKAVCSQEAMTGPCRAVMPRWYFDLSKGKCVRFIYGGCGGNRNNFESEDYCMAVCKAMIPPTPLPTNDVDVYFETSADDNEHARFQKAKEQLEIRHRNRMDRVKKEWEEAELQAKNLPKAERQTLIQHFQAMVKALEKEAASEKQQLVETHLARVEAMLNDRRRMALENYLAALQSDPPRPHRILQALRRYVRAENKDRLHTIRHYQHVLAVDPEKAAQMKSQVMTHLHVIEERRNQILSLLYKVPYVAQEIQEEIDELLQEQRADMDQFTASISETPVDVRVSSEESEEIPPFHPFHPFPALPENEDTQPELYHPMKKGSGVGEQDGGLIGAEEKVINSKNKVDENMVIDETLDVKEMIFNAERVGGLEEERESVGPLREDFSLSS","% Inhibition, Trypsin",[1],99.6%
same,"% Inhibition, Chymotrypsin",[2],61%
same,"% Inhibition, GI Kallikrein",[3],97%
same,"% Inhibition, Plasmin",[4],77%
same,"% Inhibition, Urokinase",[5],2%
same,"% Inhibition, r.h. Protein Ca",[6],0%
same,"% Inhibition, PL Kallikrein",[7],69%
same,"% Inhibition, h. Factor XIIa",[8],6%
same,"% Inhibition, h. Factor XIa",[9],99.8%
same,"% Inhibition, h. Factor Xa",[10],0%
same,"% Inhibition, r.h. Factor VIIa",[11],15%
same,"% Inhibition, Leukocyte Elastase",[12],4%
same,"% Inhibition, Cathepsin G",[13],0%
